Values quoted from earlier work, collected in article PMC6155412.
pKd: −log10 of the molar value.

Biological target: FPR2 (Homo sapiens) (UniProt P25090)
UniProt P25090, sequence (P25090 whole entry): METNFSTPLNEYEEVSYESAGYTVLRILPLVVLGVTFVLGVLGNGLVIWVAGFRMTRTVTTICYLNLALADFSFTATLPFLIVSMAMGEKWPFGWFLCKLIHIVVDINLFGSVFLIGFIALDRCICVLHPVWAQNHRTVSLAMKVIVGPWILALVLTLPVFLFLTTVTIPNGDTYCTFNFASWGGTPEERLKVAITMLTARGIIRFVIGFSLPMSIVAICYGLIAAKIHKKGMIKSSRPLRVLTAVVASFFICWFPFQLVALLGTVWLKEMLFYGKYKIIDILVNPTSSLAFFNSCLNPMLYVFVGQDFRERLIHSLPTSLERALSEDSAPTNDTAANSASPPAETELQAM

uteroglobin (UG) (from UniProt P11684)
pKd: 7.48
